# Results published in publication PMC9105384, “Ethyl Gallate Dual-Targeting PTPN6 and PPARγ Shows Anti-Diabetic and Anti-Obese Effects” (International Journal of Molecular Sciences, 2022).
# B1: PTPN14 (Homo sapiens) (protein)
# chain: MPFGLKLRRTRRYNVLSKNCFVTRIRLLDSNVIECTLSVESTGQECLEAVAQRLELRETHYFGLWFLSKSQQARWVELEKPLKKHLDKFANEPLLFFGVMFYVPNVSWLQQEATRYQYYLQVKKDVLEGRLRCTLDQVIRLAGLAVQADFGDYNQFDSQDFLREYVLFPMDLALEEAVLEELTQKVAQEHKAHSGILPAEAELMYINEVERLDGFGQEIFPVKDNHGNCVHLGIFFMGIFVRNRIGRQAVIYRWNDMGNITHNKSTILVELINKEETALFHTDDIENAKYISRLFATRHKFYKQNKICTEQSNSPPPIRRQPTWSRSSLPRQQPYILPPVHVQCGEHYSETHTSQDSIFHGNEEALYCNSHNSLDLNYLNGTVTNGSVCSVHSVNSLNCSQSFIQASPVSSNLSIPGSDIMRADYIPSHRHSAIIVPSYRPTPDYETVMRQMKRGILHTDSQSQSLRNLNIINTHAYNQPEDLVYSQPEMRERHPYTVPYGPQGVYSNKLVSPSDQRNPKNNVVPSKPGASAISHTVSTPELANMQLQGSHNYSTAHMLKNYLFRPPPPYPRPRPATSTPDLASHRHKYVSGSSPDLVTRKVQLSVKTFQEDSSPVVHQSLQEVSEPLTATKHHGTVNKRHSLEVMNSMVRGMEAMTLKSLHLPMARRNTLREQGPPEEGSGSHEVPQLPQYHHKKTFSDATMLIHSSESEEEEEEAPESVPQIPMLREKMEYSAQLQAALARIPNKPPPEYPGPRKSVSNGALRQDQASLPPAMARARVLRHGPAKAISMSRTDPPAVNGASLGPSISEPDLTSVKERVKKEPVKERPVSEMFSLEDSIIEREMMIRNLEKQKMAGLEAQKRPLMLAALNGLSVARVSGREENRVDATRVPMDERFRTLKKKLEEGMVFTEYEQIPKKKANGIFSTAALPENAERSRIREVVPYEENRVELIPTKENNTGYINASHIKVVVGGAEWHYIATQGPLPHTCHDFWQMVWEQGVNVIAMVTAEEEGGRTKSHRYWPKLGSKHSSATYGKFKVTTKFRTDSVCYATTGLKVKHLLSGQERTVWHLQYTDWPDHGCPEDVQGFLSYLEEIQSVRRHTNSMLEGTKNRHPPIVVHCSAGVGRTGVLILSELMIYCLEHNEKVEVPMMLRLLREQRMFMIQTIAQYKFVYQVLIQFLQNSRLI
# B2: DUSP18 (Homo sapiens) (protein)
# chain: MTAPSCAFPVQFRQPSVSGLSQITKSLYISNGVAANNKLMLSSNQITMVINVSVEVVNTLYEDIQYMQVPVADSPNSRLCDFFDPIADHIHSVEMKQGRTLLHCAAGVSRSAALCLAYLMKYHAMSLLDAHTWTKSCRPIIRPNSGFWEQLIHYEFQLFGKNTVHMVSSPVGMIPDIYEKEVRLMIPL
# B3: DUSP9 (Homo sapiens) (protein)
# chain: MEGLGRSCLWLRRELSPPRPRLLLLDCRSRELYESARIGGALSVALPALLLRRLRRGSLSVRALLPGPPLQPPPPAPVLLYDQGGGRRRRGEAEAEAEEWEAESVLGTLLQKLREEGYLAYYLQGGFSRFQAECPHLCETSLAGRAGSSMAPVPGPVPVVGLGSLCLGSDCSDAESEADRDSMSCGLDSEGATPPPVGLRASFPVQILPNLYLGSARDSANLESLAKLGIRYILNVTPNLPNFFEKNGDFHYKQIPISDHWSQNLSRFFPEAIEFIDEALSQNCGVLVHCLAGVSRSVTVTVAYLMQKLHLSLNDAYDLVKRKKSNISPNFNFMGQLLDFERSLRLEERHSQEQGSGGQASAASNPPSFFTTPTSDGAFELAPT
# B4: DUSP22 (Homo sapiens) (protein)
# chain: MGNGMNKILPGLYIGNFKDARDAEQLSKNKVTHILSVHDSARPMLEGVKYLCIPAADSPSQNLTRHFKESIKFIHECRLRGESCLVHCLAGVSRSVTLVIAYIMTVTDFGWEDALHTVRAGRSCANPNVGFQRQLQEFEKHEVHQYRQWLKEEYGESPLQDAEEAKNILAAPGILKFWAFLRRL
# B5: PTPN18 (Homo sapiens) (protein)
# chain: MSRSLDSARSFLERLEARGGREGAVLAGEFSDIQACSAAWKADGVCSTVAGSRPENVRKNRYKDVLPYDQTRVILSLLQEEGHSDYINGNFIRGVDGSLAYIATQGPLPHTLLDFWRLVWEFGVKVILMACREIENGRKRCERYWAQEQEPLQTGLFCITLIKEKWLNEDIMLRTLKVTFQKESRSVYQLQYMSWPDRGVPSSPDHMLAMVEEARRLQGSGPEPLCVHCSAGCGRTGVLCTVDYVRQLLLTQMIPPDFSLFDVVLKMRKQRPAAVQTEEQYRFLYHTVAQMFCSTLQNASPHYQNIKENCAPLYDDALFLRTPQALLAIPRPPGGVLRSISVPGSPGHAMADTYAVVQKRGAPAGAGSGTQTGTGTGTGARSAEEAPLYSKVTPRAQRPGAHAEDARGTLPGRVPADQSPAGSGAYEDVAGGAQTGGLGFNLRIGRPKGPRDPPAEWTRV
# B6: DUSP3 (Homo sapiens) (protein)
# chain: MSGSFELSVQDLNDLLSDGSGCYSLPSQPCNEVTPRIYVGNASVAQDIPKLQKLGITHVLNAAEGRSFMHVNTNANFYKDSGITYLGIKANDTQEFNLSAYFERAADFIDQALAQKNGRVLVHCREGYSRSPTLVIAYLMMRQKMDVKSALSIVRQNREIGPNDGFLAQLCQLNDRLAKEGKLKP
# B7: PTPN21 (Homo sapiens) (protein)
# chain: MPLPFGLKLKRTRRYTVSSKSCLVARIQLLNNEFVEFTLSVESTGQESLEAVAQRLELREVTYFSLWYYNKQNQRRWVDLEKPLKKQLDKYALEPTVYFGVVFYVPSVSQLQQEITRYQYYLQLKKDILEGSIPCTLEQAIQLAGLAVQADFGDFDQYESQDFLQKFALFPVGWLQDEKVLEEATQKVALLHQKYRGLTAPDAEMLYMQEVERMDGYGEESYPAKDSQGSDISIGACLEGIFVKHKNGRHPVVFRWHDIANMSHNKSFFALELANKEETIQFQTEDMETAKYIWRLCVARHKFYRLNQCNLQTQTVTVNPIRRRSSSRMSLPKPQPYVMPPPPQLHYNGHYTEPYASSQDNLFVPNQNGYYCHSQTSLDRAQIDLNGRIRNGSVYSAHSTNSLNNPQPYLQPSPMSSNPSITGSDVMRPDYLPSHRHSAVIPPSYRPTPDYETVMKQLNRGLVHAERQSHSLRNLNIGSSYAYSRPAALVYSQPEIREHAQLPSPAAAHCPFSLSYSFHSPSPYPYPAERRPVVGAVSVPELTNAQLQAQDYPSPNIMRTQVYRPPPPYPPPRPANSTPDLSRHLYISSSNPDLITRRVHHSVQTFQEDSLPVAHSLQEVSEPLTAARHAQLHKRNSIEVAGLSHGLEGLRLKERTLSASAAEVAPRAVSVGSQPSVFTERTQREGPEEAEGLRYGHKKSLSDATMLIHSSEEEEDEDFEEESGARAPPARAREPRPGLAQDPPGCPRVLLAGPLHILEPKAHVPDAEKRMMDSSPVRTTAEAQRPWRDGLLMPSMSESDLTTSGRYRARRDSLKKRPVSDLLSGKKNIVEGLPPLGGMKKTRVDAKKIGPLKLAALNGLSLSRVPLPDEGKEVATRATNDERCKILEQRLEQGMVFTEYERILKKRLVDGECSTARLPENAERNRFQDVLPYDDVRVELVPTKENNTGYINASHIKVSVSGIEWDYIATQGPLQNTCQDFWQMVWEQGIAIIAMVTAEEEGGREKSFRYWPRLGSRHNTVTYGRFKITTRFRTDSGCYATTGLKMKHLLTGQERTVWHLQYTDWPEHGCPEDLKGFLSYLEEIQSVRRHTNSTSDPQSPNPPLLVHCSAGVGRTGVVILSEIMIACLEHNEVLDIPRVLDMLRQQRMMLVQTLCQYTFVYRVLIQFLKSSRLI
# B8: PTPN12 (Homo sapiens) (protein)
# chain: MEQVEILRKFIQRVQAMKSPDHNGEDNFARDFMRLRRLSTKYRTEKIYPTATGEKEENVKKNRYKDILPFDHSRVKLTLKTPSQDSDYINANFIKGVYGPKAYVATQGPLANTVIDFWRMIWEYNVVIIVMACREFEMGRKKCERYWPLYGEDPITFAPFKISCEDEQARTDYFIRTLLLEFQNESRRLYQFHYVNWPDHDVPSSFDSILDMISLMRKYQEHEDVPICIHCSAGCGRTGAICAIDYTWNLLKAGKIPEEFNVFNLIQEMRTQRHSAVQTKEQYELVHRAIAQLFEKQLQLYEIHGAQKIADGVNEINTENMVSSIEPEKQDSPPPKPPRTRSCLVEGDAKEEILQPPEPHPVPPILTPSPPSAFPTVTTVWQDNDRYHPKPVLHMVSSEQHSADLNRNYSKSTELPGKNESTIEQIDKKLERNLSFEIKKVPLQEGPKSFDGNTLLNRGHAIKIKSASPCIADKISKPQELSSDLNVGDTSQNSCVDCSVTQSNKVSVTPPEESQNSDTPPRPDRLPLDEKGHVTWSFHGPENAIPIPDLSEGNSSDINYQTRKTVSLTPSPTTQVETPDLVDHDNTSPLFRTPLSFTNPLHSDDSDSDERNSDGAVTQNKTNISTASATVSAATSTESISTRKVLPMSIARHNIAGTTHSGAEKDVDVSEDSPPPLPERTPESFVLASEHNTPVRSEWSELQSQERSEQKKSEGLITSENEKCDHPAGGIHYEMCIECPPTFSDKREQISENPTEATDIGFGNRCGKPKGPRDPPSEWT
# B9: DUSP15 (Homo sapiens) (protein)
# chain: MTEGVLPGLYLGNFIDAKDLDQLGRNKITHIISIHESPQPLLQDITYLRIPVADTPEVPIKKHFKECINFIHCCRLNGGNCLVHCFAGISRSTTIVTAYVMTVTGLGWRDVLEAIKATRPIANPNPGFRQQLEEFGWASSQKGARHRTSKTSGAQCPPMTSATCLLAARVALLSAALVREATGRTAQRCRLSPRAAAERLLGPPPHVAAGWSPDPKYQICLCFGEEDPGPTQHPKEQLIMADVQVQLRPGSSSCTLSASTERPDGSSTPGNPDGITHLQCSCLHPKRAASSSCTR
# B10: DUSP14 (Homo sapiens) (protein)
# chain: MSSRGHSTLPRTLMAPRMISEGDIGGIAQITSSLFLGRGSVASNRHLLQARGITCIVNATIEIPNFNWPQFEYVKVPLADMPHAPIGLYFDTVADKIHSVSRKHGATLVHCAAGVSRSATLCIAYLMKFHNVCLLEAYNWVKARRPVIRPNVGFWRQLIDYERQLFGKSTVKMVQTPYGIVPDVYEKESRHLMPYWGI
# Substrate: Cc1cc(=O)oc2c(F)c(OP(=O)(O)O)c(F)cc12
# Test: purified protein, by the assay type
# Parameters: DiFMUP hydrolysis by purified PTPs, fluorescence Ex355/Em460, initial rates over 10 min; Michaelis-Menten and Lineweaver-Burk Km
# Description: The enzymatic activity of each PTP was evaluated using 6,8-difluoro-4-methylumbelliferyl phosphate (DiFMUP) as the surrogate substrate. To reach within the range of the initial rate (v0) during the measurement for 10 min, the pH and concentration of each PTP were optimized and are listed in Table S3. To determine the Km values, each PTP with optimized concentration was added to the reaction buffer (20 mM Bis-Tris at pH 6.0 or Tris at pH 7.0 and 8.0, 150 mM NaCl, 2.5 mM dithiothreitol (DTT), 0.01% Triton X-100) containing various concentrations of DiFMUP to obtain a final volume of 100 μL in a 96-well plate. Fluorescence intensities were measured once every minute for a complete 10 min duration using a Victor™ X4 Multilabel Plate Reader (Perkin Elmer, Waltham, MA, USA) at excitation/emission = 355 nm/460 nm. The initial rates of the reaction were determined using a previously described procedure for calculating the amount of product formation. To screen a library of 1033 natural products (Chengdu Biopurify Phytochemicals Ltd., Chengdu, China) against 20 PTPs, each PTP with an optimized concentration was added to the reaction buffer with an optimized pH containing DiFMUP (2 × Km for each PTP) after adding each compound (20 μM). […] The IC50 values were estimated using a sigmoid plot in GraphPad Prism 5 software (GraphPad Software Inc., San Diego, CA, USA). The Hill coefficient (nH), the degree of cooperativity, was calculated according to a previously published method. To determine the inhibition constant (Ki) and identify the inhibition mode of EG, various concentrations of EG (2.5, 5, 10, and 20 μM) were assayed with various concentrations of DiFMUP (260, 130, 65, and 32.5 μM). Kinetic parameters were obtained using Dixon plots for Ki and Lineweaver-Burk plots for the inhibition mode.
row,Protein,Km [µM]
1,B1,423.7
2,B2,29.0
3,B3,35.0
4,B4,13.0
5,B5,5.5
6,B6,100.0
7,B7,46.7
8,B8,75.8
9,B9,9.1
10,B10,55.0
